In the supplement of paper PMC10724198:
± gives the standard deviation of the averaged measurements.

Test system: Saccharomyces cerevisiae
Assay: protein stability index of tFT-peptide fusion (C-terminal peptide) (PSI (0-1 scale)); higher = more stable (slower turnover)
Conditions: genetic background: wild type; temperature: 30 C
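Further: PSI is a weighted mean of sequencing reads over stability bins, variants kept only with over 10 reads, mCherry proximal and sfGFP distal, peptide attached via GGGS linker.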

SPPSPLSLPLPS
protein stability index: 0.707 ± 0.014

SPPTEPFPDPTH
protein stability index: 0.6628 ± 0.0053

SPQRAHLHHHPT
protein stability index: 0.654 ± 0.026

SPRISSCSPFDS
protein stability index: 0.726 ± 0.036

SPRPSVLPPLSL
protein stability index: 0.734 ± 0.011

SPRVKEVSREIR
protein stability index: 0.689 ± 0.045

SPRVSRRVLPSF
protein stability index: 0.6696 ± 0.0027

SPRYLLFSLRSP
protein stability index: 0.714 ± 0.11

SPSFPPHRPPQH
protein stability index: 0.724 ± 0.066

SPSHSVSGPLSF
protein stability index: 0.648 ± 0.014

SPSLPQLLDPPS
protein stability index: 0.711 ± 0.011

SPSLSFVFPVSL
protein stability index: 0.756 ± 0.039

SPSPHPQPLIPL
protein stability index: 0.681 ± 0.03

SPSPPLPFSRPP
protein stability index: 0.686 ± 0.044

SPSPPPASPPAP
protein stability index: 0.654 ± 0.14

SPSRHPSPPKPP
protein stability index: 0.607 ± 0.021

SPSSSPLSPFPL
protein stability index: 0.713 ± 0.084

SPSTSPPPSSSS
protein stability index: 0.697 ± 0.042

SPSYACLPPPIP
protein stability index: 0.7461 ± 0.0032

SPTPLDPLRAPL
protein stability index: 0.6902 ± 0.0027

SPTPPPPPPRPP
protein stability index: 0.581 ± 0.018

SPVPLPPPLPSL
protein stability index: 0.664 ± 0.023

SPVPVTFSLLTR
protein stability index: 0.698 ± 0.0082

SPVRLSSVPRPY
protein stability index: 0.683 ± 0.019

SPWLSSRFRVPR
protein stability index: 0.686 ± 0.021

SPWMSKNGQSSD
protein stability index: 0.622 ± 0.02

SPWWAPPSPPYP
protein stability index: 0.582 ± 0.015

SQAFPPADLRPR
protein stability index: 0.719 ± 0.058

SQLKHLPPDREC
protein stability index: 0.679 ± 0.016

SQMMLKQKFLRR
protein stability index: 0.628 ± 0.024

SRACTRRSHTLE
protein stability index: 0.681 ± 0.032

SRAIEPSEFSVA
protein stability index: 0.715 ± 0.055

SRARPPLLPFPP
protein stability index: 0.615 ± 0.061

SRASTGPPPPGT
protein stability index: 0.692 ± 0.026

SRCGSFRICFGT
protein stability index: 0.638 ± 0.013

SRFLPPSHLLPP
protein stability index: 0.738 ± 0.093

SRFVRNRYGRVV
protein stability index: 0.648 ± 0.027

SRGRAGESRPRG
protein stability index: 0.712 ± 0.069

SRGSSGHLVNLV
protein stability index: 0.607 ± 0.049

SRGVLLCHCSIA
protein stability index: 0.758 ± 0.12

SRKCLPPLQLWS
protein stability index: 0.759 ± 0.067

SRLLPPLPPLSP
protein stability index: 0.767 ± 0.097

SRNKLNSIIIEK
protein stability index: 0.608 ± 0.046

SRPLPLPPRPLP
protein stability index: 0.647 ± 0.023

SRPLPPSLPPPP
protein stability index: 0.756 ± 0.0098

SRPLQPLHQPKY
protein stability index: 0.681 ± 0.052

SRPPAPPPLPAP
protein stability index: 0.726 ± 0.025

SRPPPPSIYLSI
protein stability index: 0.6912 ± 0.0021

SRPRSPPPPPIT
protein stability index: 0.819 ± 0.054

SRPTSGPPQPPL
protein stability index: 0.707 ± 0.022

SRPVSSFPPPLR
protein stability index: 0.664 ± 0.071

SRQDLPKYVYLY
protein stability index: 0.508 ± 0.016

SRRENEVIGGAE
protein stability index: 0.725 ± 0.068

SRRGARRHVRLK
protein stability index: 0.6757 ± 0.00074

SRRGFTHDGLKD
protein stability index: 0.645 ± 0.032

SRRLQSPVRVVT
protein stability index: 0.773 ± 0.15

SRRRSPARPSLP
protein stability index: 0.7462 ± 0.0045

SRRRVTSCTARG
protein stability index: 0.729 ± 0.018

SRRSCTLLSTTW
protein stability index: 0.698 ± 0.022

SRRSVVRPPCIG
protein stability index: 0.656 ± 0.056

SRRVSLGLSVDS
protein stability index: 0.662 ± 0.074

SRSETIQTGIGW
protein stability index: 0.706 ± 0.012

SRSISCPVLSKI
protein stability index: 0.707 ± 0.017

SRSKVVVHNSYW
protein stability index: 0.724 ± 0.14

SRSSPLYRRGVR
protein stability index: 0.679 ± 0.089

SRTLYERTRFVL
protein stability index: 0.647 ± 0.018

SRVPTSRARKRS
protein stability index: 0.7001 ± 0.0042

SSCLDAHPPSSS
protein stability index: 0.736 ± 0.072

SSCLRQGVGACG
protein stability index: 0.702 ± 0.018

SSDFTSRHTRPP
protein stability index: 0.639 ± 0.035

SSDSYANLNWVI
protein stability index: 0.741 ± 0.038

SSEECYDTKGEL
protein stability index: 0.674 ± 0.027

SSENIQLADQLR
protein stability index: 0.702 ± 0.046

SSFLLGCAFPLG
protein stability index: 0.688 ± 0.0075

SSFLSFSSGCQS
protein stability index: 0.757 ± 0.045

SSFNSCQFVLSY
protein stability index: 0.563 ± 0.011

SSFSACPTKIII
protein stability index: 0.686 ± 0.048

SSGCVNILIDLF
protein stability index: 0.638 ± 0.011

SSGKRANINKNK
protein stability index: 0.695 ± 0.022

SSGVCSGTSALN
protein stability index: 0.681 ± 0.033

SSHWGRSRLASG
protein stability index: 0.674 ± 0.1

SSIVGRLLSTNT
protein stability index: 0.664 ± 0.071

SSLLLPALSPSV
protein stability index: 0.647 ± 0.077

SSLLSLAFFAPS
protein stability index: 0.7147 ± 0.0056

SSLPAPSPVPSP
protein stability index: 0.731 ± 0.081

SSLPPPRLFLLP
protein stability index: 0.697 ± 0.085

SSLQGSCPSKSL
protein stability index: 0.7 ± 0.044

SSLTTCFLSFPP
protein stability index: 0.668 ± 0.066

SSLVRFDSSAPL
protein stability index: 0.665 ± 0.033

SSNLLFCSIFYV
protein stability index: 0.6181 ± 0.0021

SSNRKLVRLASS
protein stability index: 0.69 ± 0.084

SSNSSFFIWGLV
protein stability index: 0.7119 ± 0.00078

SSPIRPFLPPGY
protein stability index: 0.6709 ± 0.0049

SSPLWCFRLVFF
protein stability index: 0.583 ± 0.015

SSPNPPRELGPY
protein stability index: 0.607 ± 0.055

SSPPAPHGAHPP
protein stability index: 0.752 ± 0.0099

SSPPAPHLAPPP
protein stability index: 0.703 ± 0.053

SSPPPPALPEYQ
protein stability index: 0.699 ± 0.0082

SSPRANAYASCP
protein stability index: 0.726 ± 0.16

SSPSSFLTLLFI
protein stability index: 0.621 ± 0.069

SSRLVFFLPSLR
protein stability index: 0.6966 ± 0.0022
